Data on 1 molecule can be found in patent US20260125460A1 (Eli Lilly, published 2026).

In general, IC50 refers to the concentration that inhibits the measured activity by half. In general, Kd refers to the constant that tells how readily two partners part at equilibrium. Usually koff stands for the first-order rate constant of dissociation. In general, kon refers to the rate constant with which the complex forms.

The target in assay [1] is T1, human IL-34 (human, UniProt Q6ZMJ4 21-242).
T1 sequence: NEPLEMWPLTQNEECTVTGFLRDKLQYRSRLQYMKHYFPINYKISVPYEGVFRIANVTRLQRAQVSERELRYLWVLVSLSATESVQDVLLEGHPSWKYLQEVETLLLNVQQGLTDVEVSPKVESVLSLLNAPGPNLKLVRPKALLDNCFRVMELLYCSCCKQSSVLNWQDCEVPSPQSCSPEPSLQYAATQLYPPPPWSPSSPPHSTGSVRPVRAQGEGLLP
Put plainly: cell-based or functional assay.

Assay [2] deals with T1, human IL-34. In words: competition ELISA; displacement of biotinylated human IL-34 (3.7 nM) from plate-bound hCSF1R_Fc. On the procedure:
(§1) CSF1R extracellular domain proteins (hCSF1R_Fc commercially available from R&D Cat #329-MR, cynomolgus CSF1R ECD-Fc (AAA is a linker between CSF1R extracellular domain and Fc) (SEQ ID NO: 34)) can be bound to an ELISA plate at concentrations of 30 nM in order to capture soluble biotinylated IL-34 and allowed to bind for one hour. After washing and blocking plate, biotinylated IL-34 may be added, then detected via streptavidin conjugated peroxidase. Concentrations of labeled IL-34 near the 80% binding level (EC₈₀) (3.7 nM) may be used in conjunction with a range of antibody concentrations (0-100 nM) to determine concentration of antibody required to displace IL-34 from CSF1R. After 1 hr incubation, IL-34 bound to CSF1R is detected via streptavidin conjugated peroxidase. The antibodies are assayed (n=2) and the average and standard deviation at each concentration are calculated. The potency of an antibody to displace IL-34 from CSF1R is reported as IC₅₀ (nM) with the calculated confidence interval (CI) in Table 4 and Table 5.

The target of assay [3] is T2, cynomolgus monkey IL-34 (cynomolgus monkey, UniProt G7Q1L3 21-242).
T2 construct: Biotinylated in the displacement ELISA; also called cyno IL-34
T2 sequence: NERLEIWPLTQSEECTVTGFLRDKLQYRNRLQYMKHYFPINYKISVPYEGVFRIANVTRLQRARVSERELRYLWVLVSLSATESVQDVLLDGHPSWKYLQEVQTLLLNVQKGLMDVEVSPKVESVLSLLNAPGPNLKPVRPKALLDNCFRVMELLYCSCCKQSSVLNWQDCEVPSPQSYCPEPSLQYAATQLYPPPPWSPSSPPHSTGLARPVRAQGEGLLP
In words: competition ELISA; displacement of biotinylated cyno IL-34 from plate-bound cynomolgus CSF1R ECD-Fc. On the procedure: as §1
A general note: In an ELISA, binding on a coated surface is turned into a signal by an enzyme label.

Assay [4] addresses T1, human IL-34. Put plainly: SPR, BIAcore 8K, 37 C; antibody captured on Protein A chip, IL-34 in flow; 1:1 fit; average of at least three experiments. On the procedure:
(§2) Binding affinity of anti-IL-34 monoclonal antibodies of the present disclosure to human and/or cynomolgus monkey (cyno) IL-34 may be determined by methods known in the art. […] For each cycle, 200 μL IL-34 is flowed over the immobilized antibody at 100 μL/minute, and then dissociated for 20 minutes. The chip surface is regenerated with 50 μL of glycine buffer at pH 1.5 at a flow rate of 100 μL/minute. The data are fit to a 1:1 Langmiur binding mode to derive kon, koff and to calculate KD.

The target in assay [5] is T2, cynomolgus monkey IL-34. The description is as above. Here is the method: as §2

B1: Antibody 1 (antibody, human IgG4 S228P, kappa, F234A L235A, V domains shown)
VH: EVQLLESGGGLVQPGGSLRLSCAASGFAFSNYAMSWVRQAPGKGLEWVSAISASGGKTYYADSVKGRFTISRDNSKNTLYLQMNSLRAEDTAVYYCAKRGYLWHAFDHWGRGTLVTVSS
VL: EIVLTQSPGTLSLSPGERATLSCRASQSVYSSYLAWYQQKPGQAPRLLIYGASSRATGIPDRFSGSGSGTDFTLTISRLEPEDFAVYYCQVVGSSPPFTFGGGTKVEIKR
notes: Human anti-human IL-34 antibody; IgG4 PAA hinge/Fc without the C-terminal lysine; also called Exemplified Antibody 1; exemplified antibody 1
Take B1: the “IC50 (ug/ml), neutralization of human IL-34 (100 ng/ml) induced luciferase reporter activity in hCSF1R expressing 293 SRE cells” value in assay [1] is 0.0533 µg/mL. In addition, the IC50 is 0.0657 nM in assay [2] and 1.41 nM in assay [3]. The Kd in assay [4] turned out to be 0.0338 nM; in assay [5], 0.039 nM. Further, the koff in assay [4] came to 0.00019 s⁻¹; in assay [5] it was 0.00031 s⁻¹. Also, the kon stood at 5.6e+06 M⁻¹ s⁻¹ in assay [4] and 8.1e+06 M⁻¹ s⁻¹ in assay [5].
